Experimental data reported in the supplement of paper PMC11811203.

B1: THAP1; numbered along this chain (parent)
chain: MVQSCSAYGCKNRYDKDKPVSFHKFPLTRPSLCKEWEAAVRRKNFKPTKYSSICSEHFTPDCFKRECNNKLLKENAVPTIFLCTEPHDKKEDLLEPQEQLPPPPLPPPVSQVDAAIGLLMPPLQTPVNLSVFCDHNYTVEDTMHQRKRIHQLEQQVEKLRKKLKTAQQRCRRQERQLEKLKEVVHFQKEKDDVSERGYVILPNDYFEIVEVPA

Variants of: B1
Experiment: THAP1 transcriptional activity (GFP+/GFP- enrichment relative to wild-type constructs) (ratio to WT); higher = more THAP1 activity (PSMB5 reporter activation)
Settings: with PSMB5 promoter-GFP reporter
Method in brief: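 Activity values are replicate-mean bright/dim read fold changes divided by the mean of wild-type synonymous constructs. They come from a human THAP1 site-saturation library (residues 2–213, each changed to all 20 amino acids) delivered by lentivirus at MOI ~0.3, in duplicate, into THAP1-knockout HEK-293T cells with mClover3 at endogenous PSMB5. BFP+ cells were sorted into GFP-dim and GFP-bright bins after five days, and variants were counted by Illumina sequencing of genomic DNA amplicons.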

THAP1 transcriptional activity: each site, then its substitutions
Q176: C 0.538; K 1.54; R 1.1; P 0.259; G 0.189; S 0.434; I 0.557; A 0.567; H 0.546
E174: C 1.18; V 0.568; G 0.535; R 1.48; S 0.847; F 0.564; D 0.712; T 0.836; L 1.03; P 0.189; K 0.794; H 0.817; Q 1.26
R169: C 0.292; W 0.138; Y 0.183; V 0.347; P 0.132; F 0.246; L 0.45; D 0.239; A 0.297; M 0.388; H 0.531; G 0.181; Q 0.379; S 0.262
V184: A 1.55; T 1.1; H 0.994; K 0.901; Q 1.09; C 0.742; Y 0.826; G 1.29; D 1.11; M 1.22; W 0.59; N 1.19; P 0.617; F 0.913; E 0.657; L 0.923
K181: G 0.53; S 0.298; R 0.964; V 0.316; L 0.421; D 0.296; H 0.478; P 0.152; T 0.491; E 0.582; Q 0.514; N 0.511; C 0.297; W 0.418; Y 0.36; M 0.542
R175: Y 0.619; G 0.388; H 0.492; N 0.379; I 0.699; D 0.345; C 0.503; L 0.692; E 0.554; T 0.382; P 0.102; F 0.33; K 1.17; Q 0.653; A 0.506; W 0.507
H185: M 0.723; A 1.58; S 1.02; V 0.579; I 0.617; G 0.927; C 0.951; F 0.469; R 1.31; T 1.07; L 0.359; N 1.01; Y 0.905; W 0.528; K 1.87; P 0.76
L177: I 0.925; P 0.192; H 0.327; T 0.255; A 0.268; C 0.369; V 0.404; N 0.361; S 0.206; W 0.263; K 0.328; Q 0.191; R 0.3; F 0.408; Y 0.528; D 0.233
F186: H 1.25; I 1.08; S 1.93; M 1.32; V 1.11; D 1.4; E 1.64; Y 1.36; G 1.63; A 1.67; W 1.1; R 1.31; Q 2.25; P 1.48; K 1.59; T 1.21; C 2.01; L 1.31
K179: I 0.633; G 0.4; M 0.465; F 0.421; W 0.364; V 0.388; N 0.51; Y 0.661; Q 0.656; T 0.568; H 0.616; L 0.546; D 0.403; C 0.34; P 0.213; A 0.727
E178: D 0.665; L 1.02; T 1.26; G 0.795; N 0.394; F 0.529; S 1.45; P 0.226; W 0.7; K 1.59; Y 0.632; H 0.957; A 0.976; I 0.832; C 0.927; M 0.795; V 0.568
